These results are taken from publication PMC7141811.

Experiment [1] deals with mEGFP-CaMKII-α (human Ca2+/calmodulin-dependent protein kinase II α, Avitag-linker-mEGFP-linker-CaMKII-α) (human) (UniProt Q9UQM7).
The target is the same in experiment [2]. The experiment can be described thus: single-molecule pull-down with TIRF colocalisation; mEGFP-CaMKII-α and mCherry-CaMKII-β* co-transfected in HEK 293T cells (α:β* 3:1 and 1:1); biotinylated holoenzymes captured from 100-200x diluted lysate on streptavidin-coated glass; colocalisation of green and red spots; data not shown.

UniProt Q9UQM7, sequence (Q9UQM7 whole entry): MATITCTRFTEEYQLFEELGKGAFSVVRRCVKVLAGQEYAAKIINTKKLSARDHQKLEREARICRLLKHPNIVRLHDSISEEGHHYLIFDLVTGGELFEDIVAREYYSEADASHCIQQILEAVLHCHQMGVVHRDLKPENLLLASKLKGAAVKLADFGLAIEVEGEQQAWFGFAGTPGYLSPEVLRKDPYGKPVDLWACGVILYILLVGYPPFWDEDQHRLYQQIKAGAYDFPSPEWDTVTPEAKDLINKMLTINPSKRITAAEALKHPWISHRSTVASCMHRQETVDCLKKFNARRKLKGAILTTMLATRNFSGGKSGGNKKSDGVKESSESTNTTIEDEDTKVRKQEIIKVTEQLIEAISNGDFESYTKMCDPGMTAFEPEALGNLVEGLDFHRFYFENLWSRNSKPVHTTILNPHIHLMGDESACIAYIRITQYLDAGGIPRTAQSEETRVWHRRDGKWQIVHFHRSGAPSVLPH

Consider “calmodulin (Ca2+/calmodulin) (from UniProt P62157 1-149) (natural protein)”, for which the EC50 of CaMKII-α activation (autophosphorylation at Thr 286 of glass-immobilised holoenzymes, single-molecule TIRF) by Ca2+/CaM, 20 nM to 5 μM, 100 μM Ca2+, ATP in experiment [1] is 50 to 100 nM. Substance “mCherry-CaMKII-β* (CaMKII-α in which the kinase-hub linker is replaced by that from CaMKII-β) (enzyme)” returned a percent colocalization of red and green spots (heterooligomeric holoenzymes) in experiment [2] of 80%.
